Results reported in patent US20240199762A1 (PHILOGEN S P A, published 2024).

T1: canine FAP (caFAP) extracellular domain (ECD) (domestic dog (Canis familiaris))
T1 construct: also called caFAP-ECD
T1 chain: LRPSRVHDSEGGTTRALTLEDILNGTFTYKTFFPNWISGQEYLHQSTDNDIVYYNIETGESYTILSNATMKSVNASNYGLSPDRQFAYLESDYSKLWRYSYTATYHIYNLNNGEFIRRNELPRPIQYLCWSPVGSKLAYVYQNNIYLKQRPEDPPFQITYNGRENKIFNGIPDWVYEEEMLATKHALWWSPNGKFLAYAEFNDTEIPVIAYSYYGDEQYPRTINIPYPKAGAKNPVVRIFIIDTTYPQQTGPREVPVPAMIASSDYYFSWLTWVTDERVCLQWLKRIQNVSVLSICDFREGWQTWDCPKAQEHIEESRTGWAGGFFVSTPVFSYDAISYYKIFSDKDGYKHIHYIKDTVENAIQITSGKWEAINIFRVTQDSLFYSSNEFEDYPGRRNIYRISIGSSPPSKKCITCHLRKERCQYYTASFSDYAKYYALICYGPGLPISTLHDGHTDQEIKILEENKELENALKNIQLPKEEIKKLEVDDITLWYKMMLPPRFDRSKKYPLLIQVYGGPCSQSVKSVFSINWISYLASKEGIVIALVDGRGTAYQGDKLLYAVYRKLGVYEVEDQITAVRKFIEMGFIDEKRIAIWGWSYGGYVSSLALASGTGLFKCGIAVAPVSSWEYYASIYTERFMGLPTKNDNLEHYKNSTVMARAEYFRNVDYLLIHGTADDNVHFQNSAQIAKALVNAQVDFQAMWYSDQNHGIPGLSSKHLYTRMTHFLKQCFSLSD

T2: human FAP-ECD (extracellular domain) recombinant fragment containing a C-terminal His6 tag (human, UniProt Q12884 26-760, randomly biotinylated with NHS ester-activated biotin (as used on the SA chip and Streptawell plates))
T2 construct: also called biotinylated human FAP-ECD; biotinylated human FAP
T2 sequence: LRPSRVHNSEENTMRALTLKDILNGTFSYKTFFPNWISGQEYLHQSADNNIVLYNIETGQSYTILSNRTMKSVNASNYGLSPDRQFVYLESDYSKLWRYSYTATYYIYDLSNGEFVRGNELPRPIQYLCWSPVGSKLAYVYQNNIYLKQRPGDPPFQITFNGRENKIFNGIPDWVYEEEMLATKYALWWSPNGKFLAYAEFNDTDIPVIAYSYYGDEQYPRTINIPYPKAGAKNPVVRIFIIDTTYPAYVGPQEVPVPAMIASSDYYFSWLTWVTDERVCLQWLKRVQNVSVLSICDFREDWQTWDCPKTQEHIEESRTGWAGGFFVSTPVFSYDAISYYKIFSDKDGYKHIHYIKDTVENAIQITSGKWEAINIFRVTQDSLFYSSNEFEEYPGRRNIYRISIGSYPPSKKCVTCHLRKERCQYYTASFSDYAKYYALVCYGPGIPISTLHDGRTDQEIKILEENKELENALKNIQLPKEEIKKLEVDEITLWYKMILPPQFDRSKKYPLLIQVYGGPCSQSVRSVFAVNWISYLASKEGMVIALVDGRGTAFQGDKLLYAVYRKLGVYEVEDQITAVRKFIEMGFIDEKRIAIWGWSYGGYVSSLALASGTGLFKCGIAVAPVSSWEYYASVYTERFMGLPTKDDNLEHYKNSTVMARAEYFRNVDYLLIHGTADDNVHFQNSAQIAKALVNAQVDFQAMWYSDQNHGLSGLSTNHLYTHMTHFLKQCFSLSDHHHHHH


What was measured:
[1] = biological target: T1, canine FAP (caFAP) extracellular domain …; test: ELISA, 120 nM caFAP-ECD coated, antibody at 5 ug/mL
Experimental: Cross-reactivity of the anti-hFAP antibodies with caFAP-ECD was tested using ELISA. 120 nM of caFAP-ECD was coated on Maxisorp plates overnight at 4° C. […] Specifically, the C5 antibody was employed in IgG2a format, while all other antibodies, including the 7NP2 antibody, were in IgG1 format. The differences between the IgG2a and IgG1 formats are not expected to affect binding to FAP. After 3 washes with PBS, binding of the antibodies to caFAP-ECD was detected using an anti-human or anti-murine antibody HRP conjugate.

[2] = biological target: T2, human FAP-ECD (extracellular domain) …; test: epitope ELISA on biotinylated human FAP on Streptawell plates
Experimental: To evaluate binding, 100 nM of biotinylated human FAP were coated on Streptawell plates for 30 min at 37° C.
The C5 antibody in IgG2a format was incubated together with the 7NP2 antibody in IgG1 format, the F5 antibody in IgG1 format (WO2016/116399), the ESC11 antibody in IgG1 format (Fisher et al., (2012) Clin Cancer Res; 18(22)), or the (negative control) antibody KSF in IgG1 format for 1.5 h at room temperature at a concentration of 5 μg/mL in the antigen-coated wells. After 3 washes with PBS, binding of the antibodies to human FAP was detected using anti-human or anti-murine HRP conjugates (FIG. 7).

Row | Binder | binding result [1] | binding result [2]
1 | anti-FAP antibody 7NP2 in IgG1 format (antibody, V domains shown, also called 7NP2 IgG1; 7NP2(IgG1)) VH: EVQLLESGGGLVQPGGSLRLSCAASGFTFSSYAMSWVRQAPGKGLEWVSAIGSVGGPTYYADSVKGRFTISRDNSKNTLYLQMNSLRAEDTAVYYCAKRLAWFDYWGQGTLVTVSS VL: EIVLTQSPGTLSLSPGERATLSCRASQSVSSSYLAWYQQKPGQAPRLLIYGASSRATGIPDRFSGSGSGTDFTLTISRLEPEDFAVYYCQQSGKGPLTFGQGTKVEIKR | binds | –
2 | anti-hen egg lysozyme antibody KSF in IgG1 format (antibody, V domains shown, Negative control; It was conjugated to FITC in the immunofluorescence and ex vivo experiments; also called KSF IgG1; KSF(IgG1)) VH: not shown VL: SSELTQDPAVSVALGQTVRITCQGDSLRSYYASWYQQKPGQAPVLVIYGKNNRPSGIPDRFSGSSSGNTASLTITGAQAEDEADYYCQSSPLNRLAVVFGGGTKLTVLG | – | no binding (tested: 5 µg/mL)
